Reference: article PMC3724679, “Biochemical Characterization of a Polysialyltransferase from Mannheimia haemolytica A2 and Comparison to Other Bacterial Polysialyltransferases” (PLoS ONE, 2013)

Tested on: CC(=O)N[C@H]1[C@H]([C@H](O)[C@H](O)CO)O[C@](OP(=O)(O)OC[C@H]2O[C@@H](n3ccc(N)nc3=O)[C@H](O)[C@@H]2O)(C(=O)O)C[C@@H]1O
Experiment: purified protein
Settings: 0.5 mM GD3-FCHASE acceptor, 50 mM HEPES pH 7.5, 10 mM MgCl2, 30°C, CMP-Neu5Ac varied 0.25-20 mM

Q: How did the Km turn out when “PSTMh (MalE-Δ20PSTMh) (Mannheimia haemolytica)” was run?
A: 1100 ± 50 µM

Q: What about the Vmax of the same substance?
A: 1520 µmol/min/mg
